Measurements published in patent publication US20250333542A1 (Hoffmann-La Roche, published 2025).

Key:
[1] = target: T1, Fc (kih)-IFNGR1 monomer (P1AF7104) (UniProt P15260 18-245); assay: SPR (Biacore 8K, 25 C), biotinylated Fc(kih)-IFNG captured on SA chip, Fc(kih)-IFNGR1 monomer as analyte, 1:1 Langmuir fit
T1 construct: Used as the soluble analyte in SPR; not shown: Fc (kih) part
T1 sequence (P15260 whole entry, species assumed, looked up): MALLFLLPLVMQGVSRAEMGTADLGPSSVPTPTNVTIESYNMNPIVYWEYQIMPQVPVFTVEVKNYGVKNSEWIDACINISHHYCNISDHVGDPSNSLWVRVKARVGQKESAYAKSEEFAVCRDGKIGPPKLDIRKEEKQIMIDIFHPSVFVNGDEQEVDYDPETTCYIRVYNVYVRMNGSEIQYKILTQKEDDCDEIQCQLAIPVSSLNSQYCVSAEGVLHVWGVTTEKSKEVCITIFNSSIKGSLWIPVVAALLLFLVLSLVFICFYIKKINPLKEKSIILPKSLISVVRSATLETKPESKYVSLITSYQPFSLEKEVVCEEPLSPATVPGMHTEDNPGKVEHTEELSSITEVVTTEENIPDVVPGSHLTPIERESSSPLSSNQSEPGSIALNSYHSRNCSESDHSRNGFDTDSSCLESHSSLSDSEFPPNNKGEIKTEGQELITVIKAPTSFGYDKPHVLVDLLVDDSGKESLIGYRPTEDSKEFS
Procedure: (§1) The binding behaviour of IFNG variants towards IFNGR1 and IFNGR1/2 was assessed by surface plasmon resonance (SPR). SPR experiments were performed on a Biacore 8K device at 25° C. with HBS-EP as running buffer (0.01 M HEPES pH 7.4, 0.15 M NaCl, 3 mM EDTA, 0.005% Surfactant P20, Biacore, Freiburg/Germany). […] IFNG mutation series compounds were immobilised at a concentration of 25 nM, 80 s contact time and 10 μL/min. Immobilisation levels up to 450 resonance units (RU) were used. Subsequently, decreasing concentrations (800-3.13 nM) of Fc (kih)-IFNGR1 monomer or Fc (kih)-IFNGR1/2 heterodimer were injected as a second analyte with a flow rate of 30 μL/min over 120 seconds and dissociation was monitored for 500 s. Bulk refractive index differences were corrected for by subtracting the response obtained in a reference flow cell, where no protein was immobilised. […]
(§2) To further evaluate analogous properties of wild-type IFNG and our engineered compound with C-terminal KRKRP (SEQ ID NO:1), we determined the binding affinities of IFNG variants towards IFNG receptors by SPR. […] As second analytes, either IFNGR1 monomer (P1AF7104) or IFNGR1/2 heterodimer (P1AF8126) were passed through the flow cell at different concentrations and dissociation constants (KD) were calculated based on observed association and dissociation behaviour.

[2] = target: T2, Fc (kih)-IFNGR1/2 heterodimer (P1AF8126) (UniProt P15260 18-245; P38484 28-247, limits assumed); assay: SPR (Biacore 8K, 25 C), biotinylated Fc(kih)-IFNG captured on SA chip, Fc(kih)-IFNGR1/2 heterodimer as analyte, 1:1 Langmuir fit; IFNG KRKRP variant, IFNGR1/2 heterodimer as analyte
T2 construct: Used as the soluble analyte in SPR; also called Fc (kih)-IFNGR1/R2 heterodimer; IFNGR1/R2; not shown: Fc (kih) chain
T2 sequence (looked up) 1: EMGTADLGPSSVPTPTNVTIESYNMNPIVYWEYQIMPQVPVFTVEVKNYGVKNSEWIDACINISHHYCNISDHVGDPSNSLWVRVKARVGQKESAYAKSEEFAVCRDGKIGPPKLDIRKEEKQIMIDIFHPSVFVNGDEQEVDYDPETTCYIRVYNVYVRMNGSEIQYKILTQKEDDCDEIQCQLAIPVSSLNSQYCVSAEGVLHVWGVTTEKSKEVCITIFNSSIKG
T2 sequence (looked up) 2: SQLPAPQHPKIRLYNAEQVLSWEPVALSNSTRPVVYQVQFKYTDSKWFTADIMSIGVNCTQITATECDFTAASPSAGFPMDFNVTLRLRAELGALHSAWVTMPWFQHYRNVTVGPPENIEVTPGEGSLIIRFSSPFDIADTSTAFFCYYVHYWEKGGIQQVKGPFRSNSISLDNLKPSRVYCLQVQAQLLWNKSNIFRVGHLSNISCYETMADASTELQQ
Procedure: as §1, §2

B1: Fc (kih)-IFNG KRKRP (P1AG1550) (Fc fusion)
chain: QDPYVKEAENLKKYFNAGHSDVADNGTLFLGILKNWKEESDRKIMQSQIVSFYFKLFKNFKDDQSIQKSVETIKEDMNVKFFNSNKKKRDDFEKLTNYSVTDLNVQRKAIHELIQVMAELSPAAKTGKRKRP
modifications: biotinylated (site not stated)
notes: Produced as a C-terminal Fc (kih)-fusion protein; not shown: Fc (kih) chain (knob: S354C, T366W; hole: Y349C, T366S, L368A, Y410V as printed) and any linker
Q: Which results are given for B1?
A: Kd [1]: 154 nM; Kd [2]: 54.4 nM
